Source: article PMC3602430, “Identification of a Missing Link in the Evolution of an Enzyme into a Transcriptional Regulator” (PLoS ONE, 2013)

Experiments:
[1] = molecular target: NBzdR, N-terminal DNA-binding domain of BzdR (Azoarcus sp. CIB); experiment: AUC; sedimentation equilibrium of the purified proteins in solution, data fitted to dimer and monomer species; sedimentation velocity showed single species (1.8 and 2.3 S); conditions not shown
[2] = molecular target: NBzdRL, N-terminal domain of BzdR fused to its linker region (Azoarcus sp. CIB); experiment: as above
[3] = molecular target: Q1 chimera (NBzdRL fused to E. coli shikimate kinase I) (Azoarcus sp. CIB | E. coli) (UniProt P0A6D7); experiment: AUC; sedimentation velocity of purified His6-tagged proteins, c(s) distribution; s-value did not change significantly over 1-30 µM protein
[4] = molecular target: T1, BzdR (CBzdR, C-terminal effector-binding domain); experiment: intrinsic protein fluorescence titration, one-site model; design: species or system Azoarcus sp. CIB
T1 construct: His6-CBzdR, residues 131–298

[5] = substrate: O=C(O)C1=C[C@@H](O)[C@@H](O)[C@H](O)C1; experiment: coupled pyruvate kinase/lactate dehydrogenase shikimate kinase assay (Km); format: biochemical, Escherichia coli; settings: Mg2+, ATP

Q: How did the stoichiometry N [1] turn out when “NBzdR, N-terminal DNA-binding domain of BzdR (domain or fragment)” was run?
A: Its stoichiometry N is 2.

Q: Which stoichiometry N [2] does the source give for “NBzdRL, N-terminal domain of BzdR fused to its linker region (domain or fragment)” here?
A: Its stoichiometry N is 2.

Q: Which stoichiometry N [3] does the source give for “Q1 chimera (NBzdRL fused to E. coli shikimate kinase I) (from UniProt P0A6D7 1-173)” here?
A: The stoichiometry N was 2.

Q: For `CC(C)(COP(=O)(O)OP(=O)(O)OC[C@H]1O[C@@H](n2cnc3c(N)ncnc32)[C@H](O)[C@@H]1OP(=O)(O)O)[C@@H](O)C(=O)NCCC(=O)NCCSC(=O)c1ccccc1` [benzoyl-CoA], which Kd [4] is on record?
A: Its Kd is 203 ± 35 µM.

B1: shikimate kinase I (SKI) (Escherichia coli K-12) (protein)
chain: AEKRNIFLVGPMGAGKSTIGRQLAQQLNMEFYDSDQEIEKRTGADVGWVFDLEGEEGFRDREEKVINELTEKQGIVLATGGGSVKSRETRNRLSARGVVVYLETTIEKQLARTQRDKKRPLLHVETPPREVLEALANERNPLYEEIADVTIRTDDQSAKVVANQIIHMLESN
notes: His6-SKI
Q: With B1 as the molecule, how does the Km [5] read?
A: The Km was 400 µM.
